From US20110300100A1 (CSL, published 2011) come the findings set out here.

Substitutions are numbered along the chain they refer to. Numbers in names are those of the source.

In assay [1] the target is T1, wild-type murine IL-11Rα on stably transfected Ba/F3 cells (with co-receptor murine gp130) (murine, UniProt Q64385 24-432).
T1 sequence (looked up): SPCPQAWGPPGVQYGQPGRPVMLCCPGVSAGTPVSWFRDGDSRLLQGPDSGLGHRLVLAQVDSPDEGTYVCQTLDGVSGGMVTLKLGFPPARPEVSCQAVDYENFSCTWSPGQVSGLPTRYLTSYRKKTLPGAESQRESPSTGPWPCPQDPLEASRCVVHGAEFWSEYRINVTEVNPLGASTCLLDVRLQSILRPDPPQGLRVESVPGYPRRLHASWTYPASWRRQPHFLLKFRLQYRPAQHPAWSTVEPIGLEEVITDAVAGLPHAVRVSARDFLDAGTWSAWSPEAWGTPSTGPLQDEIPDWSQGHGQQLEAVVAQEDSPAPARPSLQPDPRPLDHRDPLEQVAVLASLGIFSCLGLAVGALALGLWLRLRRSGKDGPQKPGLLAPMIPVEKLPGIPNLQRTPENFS
Nature of the assay: cell-based or functional assay.

Assay [2] deals with T2, mIL-11Rα-Fc (murine, UniProt Q64385 24-372).
T2 construct: Coated on the ELISA plates; not shown: Fc part of the bought fusion protein
T2 sequence (looked up): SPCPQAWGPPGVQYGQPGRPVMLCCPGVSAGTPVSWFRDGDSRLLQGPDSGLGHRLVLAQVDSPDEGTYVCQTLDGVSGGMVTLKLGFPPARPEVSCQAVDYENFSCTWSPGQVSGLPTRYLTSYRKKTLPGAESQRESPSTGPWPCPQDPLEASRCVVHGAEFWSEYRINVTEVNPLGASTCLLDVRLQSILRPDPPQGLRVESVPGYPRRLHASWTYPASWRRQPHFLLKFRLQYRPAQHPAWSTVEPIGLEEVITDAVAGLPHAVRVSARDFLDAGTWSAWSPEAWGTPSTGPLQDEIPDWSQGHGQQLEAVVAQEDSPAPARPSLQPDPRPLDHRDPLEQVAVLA
Nature of the assay: competition ELISA, soluble protein against phage displayed IL-11 variants on coated mIL-11Rα-Fc. Here is the method:
The affinity of the selected IL-11 mutants for IL-11Rα was determined in a competition ELISA experiment. […] After incubation for 2 hours at room temperature, the plates were washed and bound phage were then labeled with an anti-M13 polyclonal antibody conjugated to horseradish peroxidase. After the removal of excess antibody by washing with PBS containing 0.05% Tween 20, TMB substrate was added to each well and incubated for 10 minutes before the reaction was quenched by the addition of 2M phosphoric acid. Absorbance at 450 nm was then determined for each well by analysis on a microtitre plate reader.
Clear differences were observed between the affinities of the mIL-11-W147A and mutant proteins for binding to IL-11Rα-Fc.

In assay [3] the target is T2, mIL-11Rα-Fc. Nature of the assay: IL-11Rα binding ELISA. On the technique in general: In an ELISA, binding on a coated surface is turned into a signal by an enzyme label.
The target in assay [4] is T1, wild-type murine IL-11Rα on stably …. Nature of the assay: cell-based or functional assay. The source holds these as a separate data set.

B1: IL-11 mutant 1B.382 (murine FMQIQ and W147A IL-11 mutein), N-terminal hexahistidine-tagged (ligand)
chain: PGPPAGSPRVSSDPRADLDSAVLLTRSLLADTRQLAAQMRDKFPADGDHSLDSLPTLFMQIQTLGSLQLPGVLTRLRVDLMSYLRHVQWLRRAGGPSLKTLEPELGALQARLERLLRRLQLLMSRLALPQAAPDQPVIPLGPPASAAGSIRAAHAILGGLHLTLDWAVRGLLLLKTRL
notes: Mutein of mature murine IL-11 with FMQIQ at 58-62 and W147A; also called clone 1B.382; not shown: N-terminal hexahistidine tag from the modified pET15b vector
Regarding B1, the “IC50 (nM), inhibition of IL-11-induced proliferation of IL-11Rα/gp130 Ba/F3 cells (MTT)” value (“IC50 (nM), inhibition” below) in assay [1] was found to be 0.49 nM. Moreover, in the assay with mIL-11Rα-Fc [2], the “fold higher affinity relative to W147A IL-11” value was determined as 20 fold.

B2: IL-11 mutant 1.21 (murine PAIDY and W147A IL-11 mutein), N-terminal hexahistidine-tagged (ligand)
chain: B1 chain with F58P, M59A, Q60I, I61D, Q62Y
notes: Mutein of mature murine IL-11 with PAIDY at 58-62 and W147A; not shown: N-terminal hexahistidine tag from the modified pET15b vector
Regarding B2, the “IC50 (nM), inhibition” value in assay [1] stood at 0.54 nM. In addition, the “fold higher affinity relative to W147A IL-11” value with mIL-11Rα-Fc [2] came out at 20 fold.

B3: mIL-11-W147A, N-terminal hexahistidine-tagged (ligand, not shown: small tags and cut ends)
chain: B1 chain with F58A, Q60S, I61A, Q62G
As to B3, the “IC50 (nM), inhibition” value in assay [1] stood at 14 nM.

B4: Δ1.21 (PEGylated and truncated modified form of clone 1.21, W147C, amino acids 10-178 of SEQ ID NO:12) (ligand)
chain: VSSDPRADLDSAVLLTRSLLADTRQLAAQMRDKFPADGDHSLDSLPTLPAIDYTLGSLQLPGVLTRLRVDLMSYLRHVQWLRRAGGPSLKTLEPELGALQARLERLLRRLQLLMSRLALPQAAPDQPVIPLGPPASACGSIRAAHAILGGLHLTLDWAVRGLLLLKTRL
modifications: 40 kDa mPEG2-maleimide on Cys147 (position corresponding to position 147 of SEQ ID NO:12)
notes: His-tag and first nine residues (which carried the optimized thrombin site, residues 6 and 7 to L and V) removed by thrombin; N-terminus Val10-Ser11-Ser12; also called PEGylated mutein; pegylated mouse IL-11 mutein Δ1.21
Regarding B4, the “fold reduction of binding affinity relative to non-PEGylated 1.21” value in the assay with mIL-11Rα-Fc [3] is ~5 fold. In addition, the “fold reduction of the ability to antagonize IL-11-induced Ba/F3 cell proliferation, relative to non-PEGylated 1.21” value in assay [4] was ~10 fold.
